Test results reported in the supplement of paper PMC10567573.

B1: MIA2 (parent)
chain: NSISSDKEATVPCTEILTEKKDTI
B2: FBF1 (parent)
chain: LQRASILDMRRDHEEQLQRLKLLK

Variants of: B1
Assay: protein stability index of a GFP-peptide fusion (GPS, HEK-293T) (PSI 1-6); higher = more stable
Settings: c terminus: a fixed tail appended
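Also: lentivirally expressed fusions sorted by FACS into six bins by GFP to DsRed ratio, PSI derived from sequencing read proportions per bin multiplied by bin number.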

Variant	protein stability index
NSISSDKEATVPCTEILTEKEDTI [K21E]	5.69
NSISSDKEATVPCTEILTEKGDTI [K21G]	5.16
NSISSDKEATVPCTEILTEKPDTI [K21P]	5.36
NSISSDKEATVPCTEILTEKMDTI [K21M]	5.7
NSISSDKEATVPCTEILTEKWDTI [K21W]	4.59
NSISSDKEATVPCTEILTEKSDTI [K21S]	5.37
NSISSDKEATVPCTEILTEKNDTI [K21N]	5.48
NSISSDKEATVPCTEILTEKCDTI [K21C]	5.27
NSISSDKEATVPCTEILTEKLDTI [K21L]	5.42
NSISSDKEATVPCTEILTEKQDTI [K21Q]	5
NSISSDKEATVPCTEILTEKKDDI [T23D]	5.17
NSISSDKEATVPCTEILTEKKDEI [T23E]	5.61
NSISSDKEATVPCTEILTEKKDNI [T23N]	5.24
NSISSDKEATVPCTEILTEKKDFI [T23F]	4.83
NSISSDKEATVPCTEILTEKKDKI [T23K]	5.54
NSISSDKEATVPCTEILTEKKDII [T23I]	5.09
NSISSDKEATVPCTEILTEKKDPI [T23P]	5.65
NSISSDKEATVPCTEILTEKKDRI [T23R]	5.13
NSISSDKEATVPCTEILTEKKDQI [T23Q]	5.55
NSISSDKEATVPCTEILTEKKDAI [T23A]	5.55
NSISSDKEATVPCTEILTEKKDSI [T23S]	5.47
NSISSDKEATVPCTEILTEKKDVI [T23V]	5.32

Variant	protein stability index
NSISSDKEATVPCTEILTEKKDCI [T23C]	5.46
NSISSDKEATVPCTEILTEKKDLI [T23L]	5.37
NSISSDKEATVPCTEILTEKKDGI [T23G]	5.5
NSISSDKEATVPCTEILTEKKDMI [T23M]	5.33
NSISSDKEATVPCTEILTEKKDWI [T23W]	4.17
NSISSDKEATVPCTEILTEKKDHI [T23H]	5.3
NSISSDKEATVPCTEILTEKKDYI [T23Y]	5.1
NSISSDKEATVPCTEILTEPKDTI [K20P]	5.3
NSISSDKEATVPCTEILTEQKDTI [K20Q]	5.39
NSISSDKEATVPCTEILTESKDTI [K20S]	5.54
NSISSDKEATVPCTEILTEGKDTI [K20G]	5.47
NSISSDKEATVPCTEILTEVKDTI [K20V]	5.31
NSISSDKEATVPCTEILTETKDTI [K20T]	5.48
NSISSDKEATVPCTEILTEYKDTI [K20Y]	4.75
NSISSDKEATVPCTEILTEWKDTI [K20W]	4.54
NSISSDKEATVPCTEILTELKDTI [K20L]	4.94
NSISSDKEATVPCTEILTEHKDTI [K20H]	5.42
NSISSDKEATVPCTEILTECKDTI [K20C]	5.25
NSISSDKEATVPCTEILTEMKDTI [K20M]	5.35
NSISSDKEATVPCTEILTEDKDTI [K20D]	5.68
NSISSDKEATVPCTEILTENKDTI [K20N]	5.53
NSISSDKEATVPCTEILTEIKDTI [K20I]	5.15

Variant	protein stability index
NSISSDKEATVPCTEILTEAKDTI [K20A]	5.34
NSISSDKEATVPCTEILTEEKDTI [K20E]	5.53
NSISSDKEATVPCTEILTEFKDTI [K20F]	4.64
NSISSDKEATVPCTEILTERKDTI [K20R]	5.17
NSISSDKEATVPCTEILTEKKCTI [D22C]	4.97
NSISSDKEATVPCTEILTEKKLTI [D22L]	4.57
NSISSDKEATVPCTEILTEKKTTI [D22T]	5.04
NSISSDKEATVPCTEILTEKKPTI [D22P]	5.43
NSISSDKEATVPCTEILTEKKFTI [D22F]	4.5
NSISSDKEATVPCTEILTEKKQTI [D22Q]	5.11
NSISSDKEATVPCTEILTEKKNTI [D22N]	5.21
NSISSDKEATVPCTEILTEKKSTI [D22S]	4.7
NSISSDKEATVPCTEILTEKKRTI [D22R]	4.89
NSISSDKEATVPCTEILTEKKGTI [D22G]	5.33
NSISSDKEATVPCTEILTEKKITI [D22I]	4.55
NSISSDKEATVPCTEILTEKKVTI [D22V]	4.31
NSISSDKEATVPCTEILTEKKMTI [D22M]	4.62
NSISSDKEATVPCTEILTEKKYTI [D22Y]	4.53
NSISSDKEATVPCTEILTEKKKTI [D22K]	5.16
NSISSDKEATVPCTEILTEKKWTI [D22W]	3.49
NSISSDKEATVPCTEILTEKKHTI [D22H]	4.94
NSISSDKEATVPCTEILTEKKATI [D22A]	5.35

Variant	protein stability index
NSISSDKEATVPCTEILTEKKETI [D22E]	5.6
NSISSDKEATVPCTEILGEKKDTI [T18G]	5.43
NSISSDKEATVPCTEILREKKDTI [T18R]	5.1
NSISSDKEATVPCTEILWEKKDTI [T18W]	5.05
NSISSDKEATVPCTEILVEKKDTI [T18V]	5.12
NSISSDKEATVPCTEILNEKKDTI [T18N]	5.46
NSISSDKEATVPCTEILCEKKDTI [T18C]	5.05
NSISSDKEATVPCTEILDEKKDTI [T18D]	5.72
NSISSDKEATVPCTEILKEKKDTI [T18K]	5.42
NSISSDKEATVPCTEILFEKKDTI [T18F]	5.48
NSISSDKEATVPCTEILYEKKDTI [T18Y]	5.19
NSISSDKEATVPCTEILMEKKDTI [T18M]	4.89
NSISSDKEATVPCTEILHEKKDTI [T18H]	5.35
NSISSDKEATVPCTEILEEKKDTI [T18E]	5.63
NSISSDKEATVPCTEILQEKKDTI [T18Q]	5.4
NSISSDKEATVPCTEILSEKKDTI [T18S]	5.39
NSISSDKEATVPCTEILAEKKDTI [T18A]	4.93
NSISSDKEATVPCTEILLEKKDTI [T18L]	5.11
NSISSDKEATVPCTEILPEKKDTI [T18P]	5.26
NSISSDKEATVPCTEILIEKKDTI [T18I]	5.19

Variants of: B2
Assay: as above
Settings: c terminus: a fixed tail appended

Variant	protein stability index
GQRASILDMRRDHEEQLQRLKLLK [L1G]	3.89
FQRASILDMRRDHEEQLQRLKLLK [L1F]	3.19
DQRASILDMRRDHEEQLQRLKLLK [L1D]	4.73
EQRASILDMRRDHEEQLQRLKLLK [L1E]	4.42
HQRASILDMRRDHEEQLQRLKLLK [L1H]	3.33
CQRASILDMRRDHEEQLQRLKLLK [L1C]	3.11
IQRASILDMRRDHEEQLQRLKLLK [L1I]	4.12
AQRASILDMRRDHEEQLQRLKLLK [L1A]	3.81
